# Variants at the floor of the assay were thinned out.
# B1: TPR 5TU (parent)
# chain: GGAUCUUCUCGAUCUAACAAAAAAGACAAAUCUGCCACAAAGCUUGAGAGCAUCUUCGGAUGCAGAGGCGGCAGCCUUCGGUGGCGCGAUAGCGCCAACGUUCUCAACUAUGACACGCAAAACGCGUGCUCCGUUGAAUGGAGUUUAUCAUG
# Variants of: B1
# Test: polymerase ribozyme fitness, log enrichment relative to wild type (log ratio); higher = more active; in vitro selection for triplet polymerase activity
# Summary of the method: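 For each subunit of a heterodimeric triplet polymerase ribozyme, a mutant library was built by PCR and transcribed, then taken through a single in vitro selection round in triplicate. Selection involved annealing to a biotinylated primer, the partner subunit and triplets, incubation frozen at −7 °C, gel excision of extended constructs, capture on streptavidin beads and RT-PCR. Genotypes were retained after Illumina sequencing of inputs and outputs only with ≥10 input reads and ≥1 read in each output. Fitness is defined as the logarithm of a genotype's enrichment relative to wild-type enrichment, using inverse-variance-weighted averages across replicates, with the logarithm taken to base 2.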
row,Variant,polymerase ribozyme fitness (log ratio)
1,A16U A41U G59A C116G C129U A150G,≤ -4.2
2,A16C C85G,-4.13
3,A16C C85U,-1.75
4,A16C C32G U56G C63G,≤ -4.2
5,U15G U44G A73C G74U G80C C93U G141C,≤ -4.2
6,U15C C18A G83A C93U A122U,-1.53
7,C14U A60U C96G,≤ -4.2
8,A16U C38U C51U A73G G92U G94A A98C U151A,-3.96
9,A16G A28U C87A A107C,≤ -4.2
10,U15G A49G C87U G136A,-1.17
11,U15C U56G A113U,-0.657
12,C14U C87U C99U G124A C125U,-2.54
13,A17C U33C G83A G141U,≤ -4.2
14,U15G A17G C27G A39G,≤ -4.2
15,A16G A52C U53A G92C U109G A137C U139G,≤ -4.2
16,C14U G74A C99A,≤ -4.2
17,U15G G50A U53A A73U C87A A113C G140U,≤ -4.2
18,A17C G74U C85A A91G G92C C93G C118A A120C,≤ -4.2
19,A16G C27A G58C C85A C96G C116U G143C U148A,≤ -4.2
20,C14U C85A U134G A142G A150U,≤ -4.2
21,A17C G68A G83A C116A G128A,≤ -4.2

row,Variant,polymerase ribozyme fitness (log ratio)
1,A16U A19U C32G A60U A91U C99U A138C,≤ -4.2
2,C14U G143A,-1.26
3,A16C A24G A47C C85G A97C A120G,≤ -4.2
4,A16U A19C C57U G71C U134G G141U,≤ -4.2
5,A16G G80A,-0.775
6,U15A A47C C54G A115G U127C U146A,-1.14
7,U15G U45C G71A G94U U134C A138U U145G,≤ -4.2
8,A16C A89U A91U U127C,≤ -4.2
9,A16G U31C C51U U53G C125A G140C,≤ -4.2
10,C14U A40C C54U C63A C95U A106C,≤ -4.2
11,A17C U55G C57A G59C C85A A115G A119U,-2.46
12,A16C G50A C85U,-3.26
13,A16G G48A C57A C76U A89C C95A C116G C131A G136C,≤ -4.2
14,C14U U31A G48C G67C A91U,≤ -4.2
15,A16U G65A C69A A91U C93A G100C U101G C123G,≤ -4.2
16,A16U G71A A73G C93U A113C C118A G140A,≤ -4.2
17,A16G A29G A47U C57U A73C C93G A98G A115G,≤ -4.2
18,U15G A40C G42A A49G G62C C93A,≤ -4.2
19,U15C A23G U82A C93G G126A,-4.14
20,A17C C131G,-3.09
21,A17C A24U C114A,-3.86

row,Variant,polymerase ribozyme fitness (log ratio)
1,A16C A19G G34A G71A C87G U145A U146C,≤ -4.2
2,A17C C95U,0.45
3,A16U C87U C116U,-2.25
4,A16U A22C C51U U55A G74A C99G C114A C131U,≤ -4.2
5,U15G A21C A26U C38G G92A A113C,≤ -4.2
6,U15C C87U A142U,-0.702
7,A16U A41G,-1.88
8,U15G C27G C76U C87G,≤ -4.2
9,A16U U82G C87U A122C,-2.32
10,U15A A29U G59U C95U A120G U127G U135C G143A,≤ -4.2
11,A17C C57U C93A U101G U144A,-2.86
12,A16U A17U U44A C54U A66G A89G G140C,≤ -4.2
13,A16U C38A C85A,-3.78
14,A16U A26C G84A,-3.52
15,C14U C32G C69A,≤ -4.2
16,A17C A22U A37U A60G G71U U78A C93A U104G A122C,≤ -4.2
17,A16U G59C A150U,-0.494
18,A17C C36U A52C G80U G84C A107U U144C,≤ -4.2
19,A16C A19U C85U G117U A150U,0.0374
20,A16C C95U,-0.661
21,C14U U55A G126A C132U,-1.73

row,Variant,polymerase ribozyme fitness (log ratio)
1,A16C A21U A39C U44A U45A A49G G84A G126U,≤ -4.2
2,A16U C27A G42A U44G U45A A49C A113G U144A,≤ -4.2
3,U15G C32A G88A A97G,≤ -4.2
4,C14U A41U U56A C93A C123A,≤ -4.2
5,A16C U82A C95G G141A,-3.41
6,U15G U31G A40U C57A C95G C125U G140U,≤ -4.2
7,C14U U56A G74A C85A C87A C125U G143C A150U G152U,≤ -4.2
8,A16C C18G U45G U61G,≤ -4.2
9,U15G G74A C96U C125A G141U,≤ -4.2
10,A16U C93U,-2.81
11,A16G G46U U55A C85A C105A,-4.14
12,C14U U31C C76U G84U A142G G143U U146G,≤ -4.2
13,A17C U45A C54G G74A A91C U139G,≤ -4.2
14,A17C A52C C79A G81A G84U A110G G112C,≤ -4.2
15,A16U U61A G74A C96G,≤ -4.2
16,A16G U33G U55A C95U,-3.89
17,A16U A22U C38U C85U,-2.73
18,A16U G25C C72G C76G C96U A107U A115G C129U,≤ -4.2
19,A16C C36G G92A C108A A113G U139A,≤ -4.2
20,U15G G152U,-2.98

# — the RNAGym collection of RNA variant scans (doi:10.1073/pnas.2313332121)
